Laboratory results as given in US20200131274A1 (CRESCENDO BIOLOGICS, published 2020).
Several values for one entry are separate records, joined by “and”; a condition that tells them apart may be missing. Equal values may be shown once.

Columns and labels:
[1] = target: T1, human prostate specific membrane antigen (PSMA), full-length, on cells (human, UniProt Q04609 1-750); test: cell-based or functional assay
[2] = target: T1, human prostate specific membrane …; test: FMAT direct cell binding, LNCap cells
[3] = target: T1, human prostate specific membrane …; test: FMAT cell binding, huPSMA CHO 1A10 cells, after 0 days in human serum at 37 C
[4] = target: T1, human prostate specific membrane …; test: FMAT cell binding, huPSMA CHO 1A10 cells, after 4 days in human serum at 37 C
[5] = target: T1, human prostate specific membrane …; test: FMAT direct cell binding, DU145 PSMA cells
[6] = target: T1, human prostate specific membrane …; test: FMAT cell binding, huPSMA CHO 1A10 cells, after 7 days in human serum at 37 C
[7] = target: T1, human prostate specific membrane …; test: FMAT cell binding, huPSMA CHO 1A10 cells, after 1 day in human serum at 37 C
[8] = target: T2, recombinant human PSMA (R&D, cat. no. 4234-ZN) (human, UniProt Q04609 44-750); test: Octet RED384 BLI, PSMA on sensor, VH series from 0.375 ug/ml
T2 construct: Bought protein; also called rhPSMA; Recombinant PMSA
T2 sequence (Q04609 44-750 limits assumed): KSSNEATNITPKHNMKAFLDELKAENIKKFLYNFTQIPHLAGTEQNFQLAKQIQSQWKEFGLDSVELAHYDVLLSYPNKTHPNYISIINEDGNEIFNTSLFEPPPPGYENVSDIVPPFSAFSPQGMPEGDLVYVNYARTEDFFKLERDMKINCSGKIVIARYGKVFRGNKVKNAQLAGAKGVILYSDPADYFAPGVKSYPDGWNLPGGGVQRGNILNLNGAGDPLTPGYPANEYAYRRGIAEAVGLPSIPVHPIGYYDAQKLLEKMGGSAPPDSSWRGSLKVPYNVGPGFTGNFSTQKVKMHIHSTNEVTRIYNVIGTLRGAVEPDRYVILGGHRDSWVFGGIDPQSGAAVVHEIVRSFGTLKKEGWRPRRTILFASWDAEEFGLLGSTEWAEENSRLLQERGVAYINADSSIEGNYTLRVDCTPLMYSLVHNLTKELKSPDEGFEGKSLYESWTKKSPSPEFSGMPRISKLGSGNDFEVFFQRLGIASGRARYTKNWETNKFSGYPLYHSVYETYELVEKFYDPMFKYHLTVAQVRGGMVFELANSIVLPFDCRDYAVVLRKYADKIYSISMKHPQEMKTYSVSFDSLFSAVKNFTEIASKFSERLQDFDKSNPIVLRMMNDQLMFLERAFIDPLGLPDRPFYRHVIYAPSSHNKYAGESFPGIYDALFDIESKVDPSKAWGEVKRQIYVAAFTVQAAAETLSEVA

[9] = target: T1, human prostate specific membrane …; test: FMAT direct cell binding, CHO human PSMA cells
[10] = target: T2, recombinant human PSMA (R&D, cat. no. …); test: Octet RED384 BLI, PSMA on sensor, Table 21 c
[11] = target: T2, recombinant human PSMA (R&D, cat. no. …); test: Octet RED384 BLI, PSMA on sensor, Table 21 c; Table 21 part c), not part b) (0.85 nM for clone 1.8)
[12] = target: T3, cynomolgus PSMA, full-length, on CHO cells (cynomolgus, UniProt A0A2K5VNZ0 1-750); test: cell-based or functional assay
[13] = target: T1, human prostate specific membrane …; test: cell-based or functional assay; remark: listed apart in the source
[14] = target: T2, recombinant human PSMA (R&D, cat. no. …); test: Octet RED384 BLI, PSMA on sensor, Table 21 b
[15] = target: T3, cynomolgus PSMA, full-length, on CHO …; test: FMAT direct cell binding, CHO cyno PSMA cells
[16] = target: T2, recombinant human PSMA (R&D, cat. no. …); test: HTRF binding assay: His-Myc tagged VH, 3 nM biotinylated PSMA, streptavidin cryptate and anti-Myc Alexa Fluor 647; VH kept 0-7 days at 37 °C in cynomolgus monkey serum; Delta F% binding signal
[17] = target: T3, cynomolgus PSMA, full-length, on CHO …; test: cell-based or functional assay; remark: listed apart in the source
[18] = target: T1, human prostate specific membrane …; test: cell-based or functional assay; remark: listed apart in the source
[19] = target: T3, cynomolgus PSMA, full-length, on CHO …; test: FMAT Mirrorball direct cell binding, purified His-tagged VH titrated on CHO cells expressing cynomolgus PSMA, FL2 median binding signal [panel cynoPSMA-CHO binding]
[20] = target: T1, human prostate specific membrane …; test: FMAT cell binding, huPSMA CHO 1A10 cells, after 4 days in human serum at 37 C; remark: listed apart in the source
[21] = target: T1, human prostate specific membrane …; test: FMAT cell binding, huPSMA CHO 1A10 cells, after 0 days in human serum at 37 C; remark: listed apart in the source
[22] = target: T1, human prostate specific membrane …; test: FMAT cell binding, huPSMA CHO 1A10 cells, after 1 day in human serum at 37 C; remark: listed apart in the source
[23] = target: T3, cynomolgus PSMA, full-length, on CHO …; test: FMAT direct binding on CHO cells expressing cynomolgus PSMA, VH not heated (4 °C, day 0), FL2 median mean fluorescence
[24] = target: T2, recombinant human PSMA (R&D, cat. no. …); test: Octet RED384 BLI, PSMA on sensor, VH series from 0.375 ug/ml; remark: listed apart in the source
[25] = target: T2, recombinant human PSMA (R&D, cat. no. …); test: Octet RED384 BLI, PSMA amine-coupled to sensor, 1:1 model
[26] = target: T3, cynomolgus PSMA, full-length, on CHO …; test: FMAT direct binding on CHO cells expressing cynomolgus PSMA, VH kept 8 days at 40 °C, FL2 median mean fluorescence
[27] = target: T1, human prostate specific membrane …; test: FMAT cell binding, huPSMA CHO 1A10 cells, after 7 days in human serum at 37 C; remark: listed apart in the source
[28] = target: T1, human prostate specific membrane …; test: FMAT Mirrorball direct cell binding, purified His-tagged VH titrated on CHO cells expressing human PSMA, FL2 median binding signal [panel huPSMA-CHO binding]
[29] = target: T1, human prostate specific membrane …; test: FMAT Mirrorball direct cell binding, purified His-tagged VH titrated on LNCap cells, FL2 median binding signal [panel LNCap cell binding]

T1 sequence (Q04609 whole entry): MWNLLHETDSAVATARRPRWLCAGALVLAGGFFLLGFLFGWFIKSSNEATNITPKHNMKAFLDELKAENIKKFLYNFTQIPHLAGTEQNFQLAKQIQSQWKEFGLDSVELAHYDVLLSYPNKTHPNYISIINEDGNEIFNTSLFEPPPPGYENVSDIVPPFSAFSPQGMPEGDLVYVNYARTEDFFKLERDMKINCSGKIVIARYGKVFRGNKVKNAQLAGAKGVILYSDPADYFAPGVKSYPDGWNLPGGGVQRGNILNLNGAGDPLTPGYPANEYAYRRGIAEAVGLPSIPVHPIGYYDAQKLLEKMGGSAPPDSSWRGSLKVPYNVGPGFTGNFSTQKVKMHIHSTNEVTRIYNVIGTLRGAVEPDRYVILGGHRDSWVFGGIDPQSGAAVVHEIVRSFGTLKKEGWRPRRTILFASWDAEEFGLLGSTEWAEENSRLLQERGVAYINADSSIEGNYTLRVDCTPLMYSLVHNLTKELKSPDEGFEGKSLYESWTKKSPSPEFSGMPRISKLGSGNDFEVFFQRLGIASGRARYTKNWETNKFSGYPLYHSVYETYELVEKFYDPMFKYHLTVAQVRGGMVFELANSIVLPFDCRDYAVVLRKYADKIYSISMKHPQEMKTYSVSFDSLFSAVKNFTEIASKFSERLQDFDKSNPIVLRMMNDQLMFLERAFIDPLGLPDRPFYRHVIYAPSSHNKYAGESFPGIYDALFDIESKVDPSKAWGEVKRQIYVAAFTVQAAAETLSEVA

B1: single VH domain antibody 1.8 (VHH)
VHH: EVQLLESGGGLVQPGGSLRLSCAASGFSFSSYAMSWVRQAPGKGLEWVSSIGENDGTTDYADSVKGRFTISRDNSKNTLYLQMNSLRVEDTAVYYCVKDGVHWGQGTLVTVSS
notes: Human single VH domain antibody (Humabody)
With B1 the “pHrodo Green internalization assay, human PSMA Average EC50 (M)” value [1] was 5e-10 M and 1.2e-09 M, the EC50 [2] was 147 pM and the EC50 [3] was 409 pM and 170 pM. For the same binder, the EC50 [4] was 496 pM and 250 pM, the EC50 [5] was 94.5 pM and the EC50 [6] was 542 pM and 270 pM. The EC50 [7] was 486 pM and 220 pM, the Kd [8] was 1950 pM and the koff [8] was 0.00104 s⁻¹. It also gave an EC50 [9] of 103 pM, a koff [10] of 0.00104 s⁻¹ and a Kd [11] of 1950 pM. The “His-ZAP cell killing, cyno PSMA EC50” value [12] was 1400 pM, the “His-ZAP cell killing, human PSMA Average EC50” value [13] was 26 pM and 40 pM and the Kd [14] was 850 pM. For the same binder, the koff [14] was 0.00068 s⁻¹ and the EC50 [15] was 310 pM.

B2: single VH domain antibody 2.1 (VHH)
VHH: EVQLVESGGGVVQPGRSLRLSCAASGFSFSGYGMHWVRQAPGKGLEWVAYISYDGSNKYYADSVKGRFTISRDNSKNTLYLQMNSLRAEDTAVYYCAKDPAWGLRLGESSSYDFDIWGQGTMVTVSS
notes: Human single VH domain antibody (Humabody); tested with a C-terminal His tag; 71-95; also called VH 2.1; VH2.1
For B2, the “EC50 (read off the curve)” value [16] was about 1000 pM, the “IC50 (read off the curve): His-ZAP saporin cell killing, cyno-PSMA CHO, % Control (Cell Titer-Glo)” value [17] was about 100 pM and the “IC50 (read off the curve): His-ZAP saporin cell killing, human-PSMA CHO, % Control (Cell Titer-Glo)” value [18] was about 40 pM. The “pHrodo Green internalization assay, human PSMA Average EC50 (M)” value [1] was 8e-10 M, the EC50 [2] was 60.7 pM and the “EC50 (read off the curve)” value [19] was about 600 pM. For the same binder, the EC50 [20] was 260 pM, the EC50 [21] was 249 pM and the EC50 [22] was 254 pM. For the same binder, the EC50 [5] was 230 pM, the “EC50 (read off the curve)” value [23] was about 2000 pM and the Kd [24] was 320 pM. The koff [24] was 0.000228 s⁻¹, the Kd [25] was 1640 pM and the koff [25] was 0.000456 s⁻¹. For the same binder, the “EC50 (read off the curve)” value [26] was about 2000 pM, the EC50 [9] was 110 pM and the “His-ZAP cell killing, cyno PSMA EC50” value [12] was 52 pM. The “His-ZAP cell killing, human PSMA Average EC50” value [13] was 14 pM, the EC50 [27] was 301 pM and the EC50 [15] was 367 pM.

B3: single VH domain antibody 3.1 (VHH)
VHH: EVQLVESGGGVVQPGRSLRLSCAASGFPLISYGMHWVRQAPGKGLEWVAFMTYDGSNRYYADSVKGRFTISRDNSKNTLYLQMNSLRDEDTALYYCARDRIVGGRVPDAFDIWGQGTMVTVSS
notes: Human single VH domain antibody (Humabody); C-terminal His tag, residues not tied; also called VH3.1
For B3, the “EC50 (read off the curve)” value [28] was about 2000 pM, the “EC50 (read off the curve)” value [19] was about 2000 pM and the “EC50 (read off the curve)” value [29] was about 2000 pM. The Kd [25] was 3780 pM and the koff [25] was 0.000452 s⁻¹.
